The text below walks through data of patent US20200079850A1.

The target of assay [1] is cynomolgus LAG3 expressed on the cell surface (293T or CHO cells) (cynomolgus monkey). Put plainly: flow cytometry, 293T cells expressing cyno LAG3. (A flow cytometer gives signals particle by particle.)
Assay [2] deals with cynomolgus LAG3-Fc (accession # NC 022282.1) (cynomolgus monkey). The assay can be described thus: SPR (Biacore), antibody captured by anti-Flag, cyno LAG3-Fc as analyte, 25 C.
Chain of cynomolgus LAG3-Fc (accession # NC 022282.1) (cynomolgus monkey) (P18627 other isoform, or with tags, fused parts or gaps limits assumed, form in doubt): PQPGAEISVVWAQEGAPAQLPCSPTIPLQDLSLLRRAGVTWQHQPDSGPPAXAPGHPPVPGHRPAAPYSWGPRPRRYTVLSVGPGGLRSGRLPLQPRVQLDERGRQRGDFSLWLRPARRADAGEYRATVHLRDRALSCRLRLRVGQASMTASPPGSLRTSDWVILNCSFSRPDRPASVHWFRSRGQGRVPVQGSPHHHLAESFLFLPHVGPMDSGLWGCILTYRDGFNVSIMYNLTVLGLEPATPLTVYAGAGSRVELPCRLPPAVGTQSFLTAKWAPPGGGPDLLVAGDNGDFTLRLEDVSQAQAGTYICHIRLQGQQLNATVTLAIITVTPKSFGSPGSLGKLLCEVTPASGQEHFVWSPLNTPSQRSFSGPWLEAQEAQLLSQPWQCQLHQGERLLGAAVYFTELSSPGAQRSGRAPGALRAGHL

Chain of cynomolgus LAG3 expressed on the cell surface (293T or CHO cells) (cynomolgus monkey) (P18627 other isoform, or with tags, fused parts or gaps limits assumed, form in doubt): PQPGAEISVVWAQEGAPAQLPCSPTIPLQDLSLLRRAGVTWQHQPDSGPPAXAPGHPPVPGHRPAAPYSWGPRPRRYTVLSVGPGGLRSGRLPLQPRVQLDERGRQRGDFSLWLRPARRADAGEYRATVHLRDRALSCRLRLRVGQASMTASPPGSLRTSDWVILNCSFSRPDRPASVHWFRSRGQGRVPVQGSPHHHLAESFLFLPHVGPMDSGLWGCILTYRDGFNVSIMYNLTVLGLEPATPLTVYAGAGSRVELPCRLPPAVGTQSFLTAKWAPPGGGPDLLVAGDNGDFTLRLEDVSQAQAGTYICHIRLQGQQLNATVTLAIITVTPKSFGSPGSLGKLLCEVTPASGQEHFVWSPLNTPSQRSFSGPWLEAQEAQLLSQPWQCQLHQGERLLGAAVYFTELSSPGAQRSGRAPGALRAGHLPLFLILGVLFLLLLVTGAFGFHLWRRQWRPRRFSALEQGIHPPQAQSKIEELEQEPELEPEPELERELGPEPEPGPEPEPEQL

B1: 421.61.4.5G11 (antibody, V domains shown)
VH: EVQLQQSGAELVRSGASVKLSCTASGFNIKDYYMHWVKQRPEQGLEWIAWIDPENGDTEYAPKFQGRATLTADTSSNTAYLHLSSLTSEDTAVYYCNAPDALDYWGQGTSVTVSS
VL: not shown
Consider B1, for which the Kd in assay [1] was 4.5 nM. In assay [2], this molecule had a Kd of 4.51 nM and an off-rate constant (koff) of 0.000641 s⁻¹.

Broadly, the Kd is the concentration at which binding is half-saturated. Read a low Kd as a tighter complex. One may read the koff as the first-order rate constant of dissociation. Low values mean a long-lived complex, high ones a short-lived complex.
